This note sets out measurements from paper PMC11791182, “Molecular mechanism targeting condensin for chromosome condensation” (The EMBO Journal, 2024).

Holding throughout (conditions): both partners purified
Assay [1] addresses T1, pentameric condensin holo-complex (S. cerevisiae, UniProt P38989 1-1170; Q12267 1-1418; P38170 1-754; Q06680 1-1035; Q06156 1-1176).
T1 construct: Smc2, condensin subunit, S. cerevisiae; Smc4, condensin subunit, S. cerevisiae; Brn1, condensin kleisin subunit, S. cerevisiae; Ycg1, condensin HAWK subunit, S. cerevisiae; Ycs4, condensin HAWK subunit, S. cerevisiae; Constructs were a gift (St-Pierre et al, 2009); also called Sc condensin complex; condensin (Brn1-6HA); source: purified from yeast (as described previously, Kschonsak et al, 2017); …
As to the kind of experiment: co-IP; two purified recombinant proteins with anti-V5-coupled dynabeads (V5-Sgo1 held), 2.5 h; 25 mM HEPES pH 7.5, 500 mM NaCl, 10% glycerol, 1 mM DTT, 0.1% NP-40; silver-stained SDS-PAGE and immunoblot. A general note: A western blot detects proteins with antibodies after separation by electrophoresis.

Assay [2] deals with T2, Ycg1 (6–932, Δ499–555)-Brn1 (384–529) (S. cerevisiae, UniProt Q06680 6-932; P38170 384-529, Δ499–555).
T2 construct: Ycg1, condensin HAWK subunit, S. cerevisiae, residues 6-932 with 499-555 deleted; Brn1, condensin kleisin subunit, S. cerevisiae, residues 384-529; Construct was a gift of Christian Haering (Kschonsak et al, 2017); also called Ycg1-Brn1; source: E. coli, purified (as described previously, Kschonsak et al, 2017)
T2 sequence (looked up) 1: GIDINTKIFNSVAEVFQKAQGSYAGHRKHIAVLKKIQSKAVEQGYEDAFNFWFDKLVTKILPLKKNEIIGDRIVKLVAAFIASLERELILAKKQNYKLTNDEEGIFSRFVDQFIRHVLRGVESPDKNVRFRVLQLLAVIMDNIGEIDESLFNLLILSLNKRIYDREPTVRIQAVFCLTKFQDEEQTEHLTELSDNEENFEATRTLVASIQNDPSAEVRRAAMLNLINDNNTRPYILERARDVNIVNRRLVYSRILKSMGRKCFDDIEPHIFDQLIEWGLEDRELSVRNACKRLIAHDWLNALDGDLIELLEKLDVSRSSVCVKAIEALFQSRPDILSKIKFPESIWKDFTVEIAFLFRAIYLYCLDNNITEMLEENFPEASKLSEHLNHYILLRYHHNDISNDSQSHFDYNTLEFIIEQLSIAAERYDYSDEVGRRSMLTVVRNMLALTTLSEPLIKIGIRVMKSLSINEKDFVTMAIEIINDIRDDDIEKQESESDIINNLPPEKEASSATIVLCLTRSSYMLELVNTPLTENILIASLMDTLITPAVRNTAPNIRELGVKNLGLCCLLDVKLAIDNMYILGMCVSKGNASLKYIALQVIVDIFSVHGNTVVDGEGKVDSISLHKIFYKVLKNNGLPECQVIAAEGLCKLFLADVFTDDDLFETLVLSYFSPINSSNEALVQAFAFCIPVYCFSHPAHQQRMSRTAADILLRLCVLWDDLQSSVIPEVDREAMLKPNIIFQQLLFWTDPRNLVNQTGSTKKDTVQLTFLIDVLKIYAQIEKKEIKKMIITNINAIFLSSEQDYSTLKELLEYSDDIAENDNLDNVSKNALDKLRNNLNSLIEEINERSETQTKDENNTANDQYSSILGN
T2 sequence (looked up) 2: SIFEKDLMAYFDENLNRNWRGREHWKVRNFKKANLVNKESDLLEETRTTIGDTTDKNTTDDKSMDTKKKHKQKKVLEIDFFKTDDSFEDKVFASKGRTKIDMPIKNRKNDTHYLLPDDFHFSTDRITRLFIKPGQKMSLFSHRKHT
In words: co-IP; two purified recombinant proteins with anti-GFP-coupled dynabeads (GFP-Sgo1 variants held), 2.5 h; 25 mM HEPES pH 7.5, 500 mM NaCl, 10% glycerol, 1 mM DTT, 0.1% NP-40; silver-stained SDS-PAGE.

For assay [3], the target named is T2, Ycg1 (6–932, Δ499–555)-Brn1 (384–529). As to the kind of experiment: SEC; Sgo1 (350–590) with Ycg1 (6–932, Δ499–555)-Brn1 (384–529); Superdex200 10/300 24 ml column; 10 mM Tris-HCl pH 7.5, 250 mM NaCl, 5% glycerol, 0.001% Tween-20. (In general: Size exclusion chromatography separates by hydrodynamic size, large species first.)

B1: V5-Sgo1 (FL) (natural protein, S. cerevisiae, UniProt Q08490 1-590, looked up)
chain: MPKRKIAPNKESSRRTVSHDDLTPQIQEFQNLMDLESQKVENIRQSYSRQNSLLAKDNSILKIKVNSLEKKISQLVQENVTLRSKTSISEAIYRERLSNQLQVIENGIIQRFDEIFYMFENVRKNENLPSSSLRTMLKRTSSRSRSCSLSSPTYSKSYTRLSNHENNLSHESSFNKDDGPDLEPKAKKRKSSRRQSMFVSTSLEPEDETGENEPMMENSSVEVPAESHESAQVEETIDALNPEEENSDSVSNFTNSIIEYSIPEENPTEPEHSSSKLEIFNDSTNMLSTVPSNPLPLPLPGPSATLPTTTSDASTVYPSSSSSTNSHPKTKIKHSMKPPRIELKKKVIDEVMPVSNMSSNSEISFTRTRRTRGKAVDYTLPSLRAKMRRPSEKLVDATTVIDIHDLQVSKRNRETSHKRKSLSQDSIPDEPQLREVVVSKDYGTPKGKKTEDEIHEDTAHLMTTSNNNSNNKNEKKLTSNNSPKKSSPLLDITNKSENKKKSTRTKKLFKNAIVNNLSDENSTTRPSKSSKGTSNNNNNYNNFDNNNSNINNVNNKSVSFRLNEDDLAVFDLFGNGKAVKHQPKTYRTKK
notes: Sgo1 (shugoshin), S. cerevisiae, full length; also called full-length V5-Sgo1; Sc Sgo1; source: protease-deficient yeast strain (AM8184), purified (Ni2+ IMAC, Superose 6 gel filtration)
Turning to B1, the binding result in assay [1] is “binds”.

B2: GFP-Sgo1 (350–590) (domain or fragment, S. cerevisiae, UniProt Q08490 350-590, looked up)
chain: EVMPVSNMSSNSEISFTRTRRTRGKAVDYTLPSLRAKMRRPSEKLVDATTVIDIHDLQVSKRNRETSHKRKSLSQDSIPDEPQLREVVVSKDYGTPKGKKTEDEIHEDTAHLMTTSNNNSNNKNEKKLTSNNSPKKSSPLLDITNKSENKKKSTRTKKLFKNAIVNNLSDENSTTRPSKSSKGTSNNNNNYNNFDNNNSNINNVNNKSVSFRLNEDDLAVFDLFGNGKAVKHQPKTYRTKK
notes: Sgo1 (shugoshin), S. cerevisiae, residues 350-590; also called C-terminal region of Sgo1 (residues 350–590); C-Sgo1
On to B2, for which the binding result in assay [2] is “binds”.

B3: V5-Sgo1 (350–590) (domain or fragment, S. cerevisiae, UniProt Q08490 350-590, looked up)
chain: B2 chain
notes: Sgo1 (shugoshin), S. cerevisiae, residues 350-590; also called recombinant C-terminal region of Sgo1 (350–590); source: protease-deficient yeast strain (AM8184), galactose induced, purified (Ni2+ IMAC, Superose 6 gel filtration)
For B3, the binding result in assay [1] and in assay [3] was “binds” each time.

B4: GFP-Sgo1 (472-530) (domain or fragment, S. cerevisiae, UniProt Q08490 472-530, looked up)
chain: KNEKKLTSNNSPKKSSPLLDITNKSENKKKSTRTKKLFKNAIVNNLSDENSTTRPSKSS
notes: Sgo1 (shugoshin), S. cerevisiae, residues 472-530; also called Recombinant Sgo1 (472-530), wild type; source: E. coli BL21(DE3), purified (Ni-NTA resin, dialysis)
As for B4, the binding result in assay [2] is recorded as “binds”.
